Each block holds one binder with its values, some of them ahead of it.
Biological target: recombinant human iduronate-2 sulfatase (rhIDS) (human) (UniProt P22304)
Test: cell-based or functional assay

recombinant human iduronate-2 sulfatase (rhIDS) (human), sequence (P22304 26-550 limits assumed): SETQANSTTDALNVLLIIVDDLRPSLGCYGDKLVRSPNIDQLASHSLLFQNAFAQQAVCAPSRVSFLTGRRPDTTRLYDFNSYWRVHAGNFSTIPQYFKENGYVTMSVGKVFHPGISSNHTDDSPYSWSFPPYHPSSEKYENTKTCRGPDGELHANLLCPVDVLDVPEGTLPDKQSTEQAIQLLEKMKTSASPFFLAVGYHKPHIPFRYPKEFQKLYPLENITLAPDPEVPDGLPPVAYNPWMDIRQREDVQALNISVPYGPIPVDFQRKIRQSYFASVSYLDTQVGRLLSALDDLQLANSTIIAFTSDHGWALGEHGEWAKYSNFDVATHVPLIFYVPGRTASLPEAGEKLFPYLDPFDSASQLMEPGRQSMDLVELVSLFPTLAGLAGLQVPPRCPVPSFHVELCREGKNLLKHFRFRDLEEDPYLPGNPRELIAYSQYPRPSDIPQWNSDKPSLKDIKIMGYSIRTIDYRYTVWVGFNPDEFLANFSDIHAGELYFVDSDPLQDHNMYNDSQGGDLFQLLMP

B1: Gallus gallus Lip2-GgFGE-His6-HDEL fusion construct (enzyme)
chain: GKETAPGGNCGCSASRSRGGEREAVATVRRYSAAANDGRSSGRGPMVAIPGGVFTMGTDEPEIQQDGEWPARRVHVNSFYMDQYEVSNQEFERFVNSTGYLTEAEKFGDSFVFEGMLSEEVKAEIHQAVAAAPWWLPVKGANWRQPEGPGSSILSRMDHPVLHVSWNDAVAFCTWAGKRLPTEAEWEYGCRGGLEKRLFPWGNKLQPKGQHYANIWQGVFPTNNTAEDGYKGTAPVTAFPPNGYGLYNIVGNAWEWTSDWWAVHHSADEAHNPKGPSSGTDRVKKGGSYMCHKSYCYRYRCAARSQNTPDSSASNLGFRCAADALPDPQHHHHHHHDEL
% FGly (LC-MS); co-expression with GgFGE: 78%

B4: Hemicentrotus pulcherrimus FGE fusion protein (Lip2pre-HpFGE-6HIS-HDEL) (enzyme)
chain: ENEDINQNISPTQSHTTATTEEELAEARGEEIDSDPTSEGSGAGEGCGCGSSALNRNHDEDALGLALEENLHDHVQEGAALKYSREANDPISMDHPEANVGAFPRTNQMNFIEGGTFRMGTDKAKIYLDGESPSRLVTLDPYYFDVYEVSNSEFELFVNTTSYITEAEKFGDSFVLEARISEEVKKDISQVVAAAPWWLPVKGAEWRHPEGPDSSISSRMDHPVTHISWNDATAYCQWAGKRLPTEAEWENAARGGLNNRLFPWGNKLMPKDHHRVNIWQGEFPKVNTAEDGYEGTCPVTAFEPNGYGLYNTVGNAWEWVADWWTTVHSPESQNNPVGPDEGTDKVKKGGSYMCHISYCYRYRCEARSQNSPDSSACNLGFRCAATNLPEDIPCSNCNDSTPHHHHHHHDEL
% FGly (LC-MS, cation exchange purified); OXYY1801 (20° C.), 1c rhIDS, 2c HpFGE: 100%
% FGly (LC-MS, cation exchange purified); OXYY1801 (24° C.), 1c rhIDS, 2c HpFGE: 100%
% FGly (LC-MS, cation exchange purified); OXYY1801 (26° C.), 1c rhIDS, 2c HpFGE: 70.4%

Further lines, results first:

% FGly (LC-MS); co-expression with MdFGE: 100%
B2: Monodelphis domestica Lip2-MdFGE-His6-HDEL fusion construct (enzyme)
chain: AARGLGSEAGSAAADAAHPAGTCGCGSPQRPGTAAHRYSREANVAEPASAERPVLTSQMAHIPAGVFTMGTDEPQIKQDGEGPARRVRINSFYMDLYEVSNAEFERFVNSTGYVTEAEKFGDSFVFDSMLSDQVKSDIHQAVAAAPWWLPVKGANWRHPEGPDSSILHRRDHPVLHVSWNDAVAYCTWAGKRLPTEAEWEYSCRGGLENRLFPWGNKLQPKGQHYANIWQGEFPVSNTGEDGYQGTAPVTAFPPNGYGLYNIVGNAWEWTSDWWTVHHSADETLDPKGPPSGSDRVKKGGSYMCHKSYCYRYRCAARSQNTPDSSASNLGFRCAADRLPDTHHHHHHHDEL

% FGly (LC-MS); co-expression with ClFGE: 100%
B3: Columba livia Lip2-C1FGE-His6-HDEL fusion construct (enzyme)
chain: MVVIPGGVFTMGTDEPAIQQDGEWPVRKVHVNSFYMDRYEVSNEDFERFVNSTGYVTEAEKFGDSFVFEGMLSEEVKAEIHQAVAAAPWWLPVKGANWKHPEGPDSNISNRMDHPVLHVSWNDAVAFCTWAGKRLPTEAEWEYSCRGGLENRLFPWGNKLQPKGQHYANIWQGVFPTNNTAEDGYKGTAPVTAFPPNGYGLYNIVGNAWEWTADWWAVHHSTEEVHNPKGPSSGTDRVKKGGSYMCHKSYCYRYRCAARSQNTPDSSASNLGFRCAADASPELPHHHHHHHDEL

From patent publication US20190040368A1
